We go through ten molecules from patent publication US20240043504A1 (published 2024).

Common to all, as to experiment: Luminex, supernatant
Experiment [1] deals with SARS-CoV-2 Spike Protein (RBD)(R319-F541).mFc (SARS-CoV-2).
For experiment [2], the target named is SARS-CoV-2 Spike Protein (RBD)(R319-F541).hFc (SARS-CoV-2).
The target of experiment [3] is Human SARS Coronavirus Spike S1 Subunit Protein (His Tag) (Sino 40150-V08B1) (Human SARS Coronavirus, UniProt P59594 14-667).

Numbering of substitutions follows the chain as printed.

B1: mAb10966 (antibody, V domains shown)
VH: EVQLVESGGGLVQPGGSLRLSCAASGLTVSSNYMSWVRQAPGKGLEWVSVIYSGGSTFYADSVKGRFTISRDNSKNTLYLQMNSLRPEDTAVYYCAREGRIAATGYGMDVWGQGTTVTVSS
VL: not shown
As to B1, the MFI in experiment [1] is 30400 MFI; in experiment [2], 30800 MFI.

B2: mAb10982 (antibody, V domains shown)
VH: EVQLVESGGGLVQPGGSLRLSCAASGLTVSSNYMSWVRQAPGKGLEWVSVIYSGGTTYYADSVKGRFTISRHNSKNTLSLQMNSLRAEDTAVYYCARGEGANYYGMDVWGQGTTVTVSS
VL: QSVLTQPPSVSGAPGQRVTISCTGSSSNIGTGYDVHWYQQLPGTAPKLLIYGNSNRPSGVPDRFSGSKSGTSASLAITGLQAEDEADYYCQSYDSSLSGYVVFGGGTKLTVLG
On to B2, for which the figures for the MFI in experiment [1], in experiment [3] and in experiment [2] were 23300 MFI, 24 MFI and 23000 MFI, respectively.

B3: mAb10967 (antibody, V domains shown)
VH: EVQLVESGGGLVQPGGSLRLSCAASGFTVSSNYMSWVRQAPGKGLEWVSVIYPGGSTFYADSVKGRFTISRDNSKNTLYLQMNSLRAEDTAVYYCARDQRDFAWGQGTLVTVSS
VL: DIQMTQSPSSLSASVGDRVTITCQASQDISNYLNWYQQKPGKAPKLLIYDASNLETGVPSRFSGSGSGTDFTFTISGLQPEDIATYYCQQYDNLPPTFGQGTRLEIKR
Take B3: the MFI was 29600 MFI in experiment [1] and 28700 MFI in experiment [2].

B4: mAb10933 (antibody, V domains shown)
VH: QVQLVESGGGLVKPGGSLRLSCAASGFTFSDYYMSWIRQAPGKGLEWVSYITYSGSTIYYADSVKGRFTISRDNAKSSLYLQMNSLRAEDTAVYYCARDRGTTMVPFDYWGQGTLVTVSS
VL: B3 VL with S30T, D50A, P96L, Q100G, R103K, L104V
Take B4: the MFI in experiment [3] was determined as 18 MFI.

B5: mAb10955 (antibody, V domains shown)
VH: EVQLVESGGGLVQPGGSLRVSCAASGFTVSRNYMSWVRQAPGKGLEWVSVIYSGGSTFYADSVKGRFTISRDNSKNTLYLQMNSLRAEDTAIYYCARYIPRFDPWGQGTLVTVSS
VL: B3 VL with Y36F, K42R, G77S, P96I
With B5, the values for the MFI in experiment [1] and in experiment [2] were 30800 MFI and 31200 MFI, respectively.

B6: mAb10954 (antibody, V domains shown)
VH: EVQLVESGGGLVQPGGSLRLSCAASGITVSSNYMSWVRQAPGKGLEWVSLIYSGGSTYYADSVKGRFTISRDNSKNTLYLQMNSLRVEDTAVYYCARDHGMAAAGYNYWGQGTLVTVSS
VL: B3 VL with S30N, N31K, S76N, G77S, I83F, Y87F, T97A, R103K, L104V
As for B6, the values for the MFI in experiment [1] and in experiment [2] were 31300 MFI and 31800 MFI, respectively.

B7: mAb10915 (antibody, V domains shown)
VH: EVQLVESGGGLVQPGGSLRLSCAASGFTVSSNYMNWVRQAPGKGLEWVSVIYSGGSTFYADSVKGRFTISRHNSKNTLYLQMNSLRPEDTAVYYCARDLGGYFDYWGQGTLVTVSS
VL: not shown
In the case of B7, the MFI in experiment [1] turned out to be 31800 MFI; in experiment [3] it was 21 MFI; in experiment [2] it was 32400 MFI.

B8: mAb10965 (antibody, V domains shown)
VH: EVQLVESGGGLIQPGGSLRLSCAASVFTVSYNYMSWVRQAPGKGLEWVSVIYSGGSTYYADSVKGRFTISRDNSKNTLYLQMNSLRAEDTAVYYCARALPGWGGSFEYFDYWGQGTLVTVSS
VL: not shown
In the case of B8, the results for the MFI in experiment [1] and in experiment [2] were 27100 MFI and 29600 MFI, respectively.

B9: mAb10956 (antibody, V domains shown)
VH: EVQLVESGGGLVQPGGSLRLSCAASGLTVSSNYMSWVRQAPGKGLEWVSVIYSGGSTFYADSVKGRFTISRDNSKNTLYLQMNSLRAEDTAVYYCARDLIKYGMDVWGQGTTVTVSS
VL: not shown
As for B9, the MFI in experiment [1] amounted to 28300 MFI; in experiment [2] it was 30200 MFI.

B10: mAb10957 (antibody, V domains shown)
VH: B9 VH with L27V, Y79F, A87I, I100G, K101P
VL: DIQLTQSPSFLSASVGDRVTITCRASQGISSYLAWYQQKPGKAPKLLIYAASTLQSGVPSRFSGSGSGTQFILTISSLQPEDFATYYCQQLNSYPGFTFGPGTKVDIKR
As to B10, the MFI in experiment [1] was 18700 MFI; in experiment [2], 22600 MFI.
